Data from patent publication US9701733B2, “Maspin-based treatment of cancer” (Northwestern University, priority 2011, dated 2017).
Entries after “also recorded” stand apart in the source; their conditions may differ.

Legend:
MCF10A cells = test: Adhesion assay of MCF10A cells on self-deposited (endogenous) matrix; format: cell-based, human; conditions: for effect of maspin-derived competitive peptide on MCF10A cell adhesion: cells pre-incubated with peptide, adhesion measured after 30 min, self-deposited matrix; for effect of GST-maspin mutant on MCF10A cell adhesion: compared to wild-type GST-maspin; for effect of GST-maspin mutant on MCF10A cell adhesion / reduction of MCF10A cell adhesion compared to WT GST-maspin: endogenous matrix; for reduction of MCF10A cell adhesion compared to WT GST-maspin: recombinant protein
Description: Assays utilizing endogenous ECM proteins generated by MCF10A cells were performed as previously described (Langhofer et al. (1993) J Cell Sci 105 (Pt 3), 753-764; herein incorporated by reference in its entirety). MCF10A cells were plated in 96-well dishes and allowed to reach confluence. Cells were washed with PBS and treated for 5 min with fresh sterile 20 mM NH4OH, followed by extensive water washes. Wells were blocked with heat-denatured BSA (10 mg/ml) for 1 hr at room temperature. Subconfluent cultures were trypsinized, washed with 37° C. serum-free DMEM/F12 medium, and incubated with either antibodies or recombinant proteins (500 nM) for 30 min at 37° C. (when assaying endogenous maspin enzyme-free cell dissociation solution was used instead of trypsin). In all assays, 2.0×10^4 cells were plated in triplicates and allowed to adhere for 30 min at 37° C. The GST protein was used as a control. Wells were washed with 37° C. serum-free DMEM/F12 and adhered cells were fixed with 5% gluteraldehyde and stained with crystal violet dye. Cell adhesion was determined by the reading at 590 nm subtracted by the blank value (determined by BSA-coated wells, 5% of maximal cell adhesion). Cell adhesion was plotted as percentage of the corresponding control value. Cell surface stripping of uPA from uPAR was conducted as previously described (Stoppelli et al. (1986) Cell 45, 675-684; herein incorporated by reference in its entirety). Subconfluent cultures were washed twice with DMEM/F12 supplemented with 20 mM HEPES and 1 mg/ml BSA. Then, cells were incubated with 50 mM glycine-HCl (pH 3.0) with 100 mM NaCl at 25° C. for 2 min and the reaction was halted by neutralizing with 500 mM HEPES (pH 7.4). In the function blocking studies, cells were first incubated with the function blocking antiuPAR or control rabbit IgG for 10 min, uPA and recombinant GST-maspin was added for another 20 min.

HUVEC endothelial cells = test: HUVEC tube formation assay on MatriGel; format: cell-based; conditions: for effect on HUVEC tube formation: 1.0 uM; for potency on tube angiogenesis: compared to the G-Helix peptide or GST-maspin (FIG. 7)
Description: HUVECs were plated on MatriGel for tube formation assay. Various peptides were tested for the potency on tube angiogenesis.
HUVEC endothelial cells were used to test the effect of synthetic maspin peptides on HUVEC tube formation assay in cell culture systems. Random peptide was used as a negative control and maspin G-helix peptide as a positive control. G-Helix was previously found to be effective in inhibiting endothelial cell migration, thereby mimicking maspin effect against angiogenesis. […] At 1.0 uM, G-helix was not effective.

WT MEF cell surface = test: 125I-GST-maspin binding to wild type MEF cell surface; parameters: species or system mouse; conditions: WT MEFs; 4° C., 90 min; <500 nM
Description: (§1) Bacterial recombinant GST-maspin was labeled with ^125I as described previously (Conlon, M. (2002) Preparation of ^125I-Labeled Peptides and Proteins with High Specific Activity using IODO-GEN, 2nd Edition Ed. The Protein Protocols Handbook (Walker, J. M., Ed.), Humana Press Inc, Totowa, N.J.; herein incorporated by reference in its entirety). Wild type (WT) and uPAR−/− mouse embryo fibroblasts (MEFs) (5.0×10^4 cells) were cultured in DMEM with 10% FBS on 96-well plate overnight. Cells were chilled on ice for 30 min, washed three times with ice-cold DMEM, and then blocked on ice for 60 min using blocking buffer (DMEM containing 5% heat inactivated BSA). MEFs were incubated with increasing concentrations of ^125I-GST-maspin in blocking buffer at 4° C. for 90 min. After incubation, unbound ^125I-GST-maspin protein was removed by washing three times with blocking buffer. Specific ^125I-GST-maspin binding was determined by subtracting the detected radioactivity by the nonspecific binding (determined in the presence of a 50-fold excess of non-labeled GST-maspin). In the studies evaluating the uPA/uPAR interactions, ^125I-GST-maspin was treated with ABS4A and S-20 (Santa Cruz) antibodies, which block the RCL and N-terminal domains, prior to adding to WT MEF cells. In one set, WT MEF cells were treated with an anti-mouse uPAR antibody (R&D), which blocks uPA binding to uPAR. […]

uPAR-/- MEFs = test: 125I-GST-maspin binding to uPAR-/- MEF cell surface; parameters: species or system mouse; conditions: 4° C., 90 min, <500 nM
Description: as §1

For “NPSTMANAKVKLSIPK (listed as Homo sapiens) [peptide 260-275]”, the “effect of maspin-derived competitive peptide on MCF10A cell adhesion” value (MCF10A cells) was “inhibited cell adhesion” and the “effect of maspin-derived competitive peptide on MCF10A cell adhesion” value (MCF10A cells; listed as 260-275 peptide) was “reduced”.

In the case of “STANAKVKLSIP (listed as Homo sapiens) [peptide X, synthetic maspin mimetic peptide]”, the “effect on HUVEC tube formation” value (HUVEC endothelial cells) is reported as “highly effective” and the “potency on tube angiogenesis” value (HUVEC endothelial cells) is reported as “highly potent”.

In the case of “TANAEVKLSIPK (listed as Homo sapiens) [peptide Y, synthetic maspin mimetic peptide]”, the “effect on HUVEC tube formation” value (HUVEC endothelial cells) is reported as “highly effective” and the “potency on tube angiogenesis” value (HUVEC endothelial cells) is reported as “highly potent”.

“TDTKPVQMMNMEATFCMGNIDSI (listed as Homo sapiens) [190-211]” was tested, and the “effect of maspin-derived competitive peptide on MCF10A cell adhesion” value (MCF10A cells) was “inhibited cell adhesion; also recorded: competed with GST-maspin”.

“peptide 169-189: peptide corresponding to maspin residues 169-189 (s3C) (GKWMKKFSESETKECPFRVNK; UniProt P36952 169-189, looked up, fragment)” was tested, and the “effect of maspin-derived competitive peptide on MCF10A cell adhesion” value (MCF10A cells) was “not s3C (peptide 169-189) was important”.

In the case of “peptide 181-202: competitive peptide corresponding to maspin amino acid residues 181-202 (KECPFRVNKTDTKPVQMMNMEA; UniProt P36952 181-202, looked up, fragment)”, the “effect of maspin-derived competitive peptide on MCF10A cell adhesion” value (MCF10A cells) is reported as “inhibited cell adhesion; also recorded: competed with GST-maspin”.

B1: single mutant (E201K): GST-maspin point mutant E201K (protein, UniProt P36952 1-375, looked up, variant E201K)
Serpin B5: MDALQLANSAFAVDLFKQLCEKEPLGNVLFSPICLSTSLSLAQVGAKGDTANEIGQVLHFENVKDVPFGFQTVTSDVNKLSSFYSLKLIKRLYVDKSLNLSTEFISSTKRPYAKELETVDFKDKLEETKGQINNSIKDLTDGHFENILADNSVNDQTKILVVNAAYFVGKWMKKFSESETKECPFRVNKTDTKPVQMMNMKATFCMGNIDSINCKIIELPFQNKHLSMFILLPKDVEDESTGLEKIEKQLNSESLSQWTNPSTMANAKVKLSIPKFKVEKMIDPKACLENLGLKHIFSEDTSDFSGMSETKGVALSNVIHKVCLEITEDGGDSIEVPGARILQHKDELNADHPFIYIIRHNKTRNIIFFGKFCSP
modifications: GST tag
For B1, the “effect of GST-maspin mutant on MCF10A cell adhesion” value (“effect of GST-maspin mutant” below) (MCF10A cells) was “inhibited cell adhesion; also recorded: significantly reduced” and the “reduction of MCF10A cell adhesion compared to WT GST-maspin” value (from here on “reduction of MCF10A cell adhesion”) (MCF10A cells) was 16%.

B2: triple mutant (E201K, K268E, K270E): GST-maspin mutant E201K, K268E, K270E (protein, UniProt P36952 1-375, looked up, variant E201K K268E K270E)
Serpin B5: MDALQLANSAFAVDLFKQLCEKEPLGNVLFSPICLSTSLSLAQVGAKGDTANEIGQVLHFENVKDVPFGFQTVTSDVNKLSSFYSLKLIKRLYVDKSLNLSTEFISSTKRPYAKELETVDFKDKLEETKGQINNSIKDLTDGHFENILADNSVNDQTKILVVNAAYFVGKWMKKFSESETKECPFRVNKTDTKPVQMMNMKATFCMGNIDSINCKIIELPFQNKHLSMFILLPKDVEDESTGLEKIEKQLNSESLSQWTNPSTMANAEVELSIPKFKVEKMIDPKACLENLGLKHIFSEDTSDFSGMSETKGVALSNVIHKVCLEITEDGGDSIEVPGARILQHKDELNADHPFIYIIRHNKTRNIIFFGKFCSP
modifications: GST fusion
B2 was tested, and the “effect of GST-maspin mutant” value (MCF10A cells) was “inhibited cell adhesion” and the “reduction of MCF10A cell adhesion” value (MCF10A cells) was “approximately 28%”.

B3: double mutant (K268E, K270E): GST-maspin mutant K268E, K270E (protein, UniProt P36952 1-375, looked up, variant K268E K270E)
Serpin B5: MDALQLANSAFAVDLFKQLCEKEPLGNVLFSPICLSTSLSLAQVGAKGDTANEIGQVLHFENVKDVPFGFQTVTSDVNKLSSFYSLKLIKRLYVDKSLNLSTEFISSTKRPYAKELETVDFKDKLEETKGQINNSIKDLTDGHFENILADNSVNDQTKILVVNAAYFVGKWMKKFSESETKECPFRVNKTDTKPVQMMNMEATFCMGNIDSINCKIIELPFQNKHLSMFILLPKDVEDESTGLEKIEKQLNSESLSQWTNPSTMANAEVELSIPKFKVEKMIDPKACLENLGLKHIFSEDTSDFSGMSETKGVALSNVIHKVCLEITEDGGDSIEVPGARILQHKDELNADHPFIYIIRHNKTRNIIFFGKFCSP
modifications: GST fusion
For B3, the “effect of GST-maspin mutant” value (MCF10A cells) was “inhibited cell adhesion”, the “effect of GST-maspin mutant” value (MCF10A cells; listed as double mutant GST maspin (K268E, K270E)) was “reduced” and the “reduction of MCF10A cell adhesion” value (MCF10A cells) was 17%.

B4: GST-maspin: Glutathione S-transferase (GST)-tagged recombinant wild-type maspin; 125I-labeled for binding assay (protein, UniProt P36952 1-375, looked up)
Serpin B5: MDALQLANSAFAVDLFKQLCEKEPLGNVLFSPICLSTSLSLAQVGAKGDTANEIGQVLHFENVKDVPFGFQTVTSDVNKLSSFYSLKLIKRLYVDKSLNLSTEFISSTKRPYAKELETVDFKDKLEETKGQINNSIKDLTDGHFENILADNSVNDQTKILVVNAAYFVGKWMKKFSESETKECPFRVNKTDTKPVQMMNMEATFCMGNIDSINCKIIELPFQNKHLSMFILLPKDVEDESTGLEKIEKQLNSESLSQWTNPSTMANAKVKLSIPKFKVEKMIDPKACLENLGLKHIFSEDTSDFSGMSETKGVALSNVIHKVCLEITEDGGDSIEVPGARILQHKDELNADHPFIYIIRHNKTRNIIFFGKFCSP
modifications: GST tag; 125I label
With B4 the “maspin-induced MCF10A cell adhesion after stripping endogenous uPA” value (MCF10A cells; endogenous uPA acid-stripped before GST-maspin) was “substantially blocks”, the “maspin-mediated adhesion of uPA-stripped MCF10A cells after addition of exogenous uPA” value (MCF10A cells; uPA acid-stripped, exogenous uPA 800 nM) was 154.06 % of GST control and the “specific 125I-GST-maspin binding to cell surface” value (WT MEF cell surface) was “displayed specific 125I-GST-maspin binding”. The “specific 125I-GST-maspin binding to cell surface” value (uPAR-/- MEFs) was “absent of any specific 125I-GST-maspin binding”.
